B1: SipB^82-312 D207C, MTSL spin-labeled (domain or fragment)
chain: EGQLTLLLGKLMTLLGDVSLSQLESRLAVWQAMIESQKEMGIQVSKEFQTALGEAQEATDLYEASIKKTDTAKSVYDAATKKLTQAQNKLQSLDPADPGYAQAEAAVEQAGKEATEAKEALDKATCATVKAGTDAKAKAEKADNILTKFQGTANAASQNQVSQGEQDNLSNVARLTMLMAMFIEIVGKNTEESLQNDLALFNALQEGRQAEMEKKSAEFQEETRKAEETNR
modifications: MTSL nitroxide spin label on the engineered cysteine at 207
B2: SipB^82-312 Lys-211 cysteine mutant, MTSL spin-labeled (domain or fragment)
chain: EGQLTLLLGKLMTLLGDVSLSQLESRLAVWQAMIESQKEMGIQVSKEFQTALGEAQEATDLYEASIKKTDTAKSVYDAATKKLTQAQNKLQSLDPADPGYAQAEAAVEQAGKEATEAKEALDKATDATVCAGTDAKAKAEKADNILTKFQGTANAASQNQVSQGEQDNLSNVARLTMLMAMFIEIVGKNTEESLQNDLALFNALQEGRQAEMEKKSAEFQEETRKAEETNR
modifications: MTSL nitroxide spin label on the engineered cysteine at 211
B3: SipB^82-312 Asn-283 cysteine mutant, MTSL spin-labeled (domain or fragment)
chain: EGQLTLLLGKLMTLLGDVSLSQLESRLAVWQAMIESQKEMGIQVSKEFQTALGEAQEATDLYEASIKKTDTAKSVYDAATKKLTQAQNKLQSLDPADPGYAQAEAAVEQAGKEATEAKEALDKATDATVKAGTDAKAKAEKADNILTKFQGTANAASQNQVSQGEQDNLSNVARLTMLMAMFIEIVGKNTEESLQNDLALFCALQEGRQAEMEKKSAEFQEETRKAEETNR
modifications: MTSL nitroxide spin label on the engineered cysteine at 283

In this assay the target is T1, SipD (residues 39-343, C244S) (Salmonella typhimurium strain SL1344, UniProt Q56026 39-343, C244S).
T1 sequence: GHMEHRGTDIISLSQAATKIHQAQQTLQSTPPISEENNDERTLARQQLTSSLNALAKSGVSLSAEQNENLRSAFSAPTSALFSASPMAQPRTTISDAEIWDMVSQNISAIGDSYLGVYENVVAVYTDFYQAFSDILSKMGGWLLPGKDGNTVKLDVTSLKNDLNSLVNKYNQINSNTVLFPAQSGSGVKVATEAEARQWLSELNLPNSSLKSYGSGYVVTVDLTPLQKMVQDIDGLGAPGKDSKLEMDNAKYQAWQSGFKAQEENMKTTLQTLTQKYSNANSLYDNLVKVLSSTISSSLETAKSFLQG
Description: NMR paramagnetic relaxation enhancement.
B1: the binding result is listed as “binds”.

B2: the binding result is recorded as “binds”.

In the case of B3, the binding result is listed as “binds”.

The values above are taken from paper PMC4918631 (Chembiochem : a European journal of chemical biology, 2016).
